Data on 8 molecules can be found in article PMC3792479 (Genes & Development, 2013).

Where no end group is shown, it is not given here. [ ]: non-standard residue; d: D form. SeMet = C[Se]CC[C@H](N)C(=O)O

Data set [1] concerns the target T1, CED-4 apoptosome (full-length wild-type CED-4) (C. elegans, UniProt P30429 1-549).
T1 sequence (looked up): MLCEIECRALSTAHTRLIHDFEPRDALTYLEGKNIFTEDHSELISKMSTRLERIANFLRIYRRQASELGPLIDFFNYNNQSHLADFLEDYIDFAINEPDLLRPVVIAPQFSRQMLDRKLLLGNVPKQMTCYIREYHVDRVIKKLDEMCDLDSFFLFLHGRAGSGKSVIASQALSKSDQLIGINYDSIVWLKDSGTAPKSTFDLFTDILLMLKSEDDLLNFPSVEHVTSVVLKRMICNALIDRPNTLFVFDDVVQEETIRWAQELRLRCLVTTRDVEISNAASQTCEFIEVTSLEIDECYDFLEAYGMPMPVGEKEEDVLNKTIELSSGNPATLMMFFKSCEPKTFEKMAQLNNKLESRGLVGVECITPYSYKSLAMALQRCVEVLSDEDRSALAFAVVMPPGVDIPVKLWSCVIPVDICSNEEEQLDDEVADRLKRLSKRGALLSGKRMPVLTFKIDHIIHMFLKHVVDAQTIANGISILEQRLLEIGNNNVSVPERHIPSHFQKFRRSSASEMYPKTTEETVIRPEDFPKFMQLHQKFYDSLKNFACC
Nature of the data set: SEC. (SEC sorts molecules by how far they enter the pores of the column.)

Data set [2] concerns the molecule itself. Nature of the data set: crystal structure.
Data set [3] concerns the target T1, CED-4 apoptosome (full-length wild-type …). The data set can be described thus: crystal structure.

B1: two-chain CED-3 (residues 198–374, 389–503, and C358A) (domain or fragment, C. elegans)
chain 1: NRSFSKASGPTQYIFHEEDMNFVDAPTISRVFDEKTMYRNFSSPRGMCLIINNEHFEQMPTRNGTKADKDNLTNLFRCMGYTVICKDNLTGRGMLLTIRDFAKHESHGDSAILVILSHGEENVIIGVDDIPISTHEIYDLLNAANAPRLANKPKIVFVQAARGERRDNGFPVLDSVD
chain 2: GPLFNFLGCVRPQVQQVWRKKPSQADILIAYATTAQYVSWRNSARGSWFIQAVCEVFSTHAKDMDVVELLTEVNKKVACGFQTSQGSNILKQMPEMTSRLLKKFYFWPEARNSAV
Consider B1, for which the binding result in data set [1] was “binds”.

B2: two-chain CED-3 with partial deletion of the L2 loop (residues 365–374) (domain or fragment, C. elegans)
chain 1: NRSFSKASGPTQYIFHEEDMNFVDAPTISRVFDEKTMYRNFSSPRGMCLIINNEHFEQMPTRNGTKADKDNLTNLFRCMGYTVICKDNLTGRGMLLTIRDFAKHESHGDSAILVILSHGEENVIIGVDDIPISTHEIYDLLNAANAPRLANKPKIVFVQAARGERRD
chain 2: GPLFNFLGCVRPQVQQVWRKKPSQADILIAYATTAQYVSWRNSARGSWFIQAVCEVFSTHAKDMDVVELLTEVNKKVACGFQTSQGSNILKQMPEMTSRLLKKFYFWPEARNSAV
For the molecule B2, the binding result in data set [1] is reported as “binds”.

B3: two-chain caspase domain of CED-3 (residues 198–374, 389–503, and C358S) (domain or fragment, C. elegans)
chain 1: NRSFSKASGPTQYIFHEEDMNFVDAPTISRVFDEKTMYRNFSSPRGMCLIINNEHFEQMPTRNGTKADKDNLTNLFRCMGYTVICKDNLTGRGMLLTIRDFAKHESHGDSAILVILSHGEENVIIGVDDIPISTHEIYDLLNAANAPRLANKPKIVFVQASRGERRDNGFPVLDSVD
chain 2: GPLFNFLGCVRPQVQQVWRKKPSQADILIAYATTAQYVSWRNSARGSWFIQAVCEVFSTHAKDMDVVELLTEVNKKVACGFQTSQGSNILKQMPEMTSRLLKKFYFWPEARNSAV
Broadly, the stoichiometry N is the number of molecules, sites or subunits per partner or assembly. On to B3, for which the “stoichiometry N” value in data set [2] was determined as 2.

B4: CED-3 (residues 198–503 and C358S) (domain or fragment, C. elegans, UniProt P42573 198-503, looked up)
chain: NRSFSKASGPTQYIFHEEDMNFVDAPTISRVFDEKTMYRNFSSPRGMCLIINNEHFEQMPTRNGTKADKDNLTNLFRCMGYTVICKDNLTGRGMLLTIRDFAKHESHGDSAILVILSHGEENVIIGVDDIPISTHEIYDLLNAANAPRLANKPKIVFVQASRGERRDNGFPVLDSVDGVPAFLRRGWDNRDGPLFNFLGCVRPQVQQVWRKKPSQADILIAYATTAQYVSWRNSARGSWFIQAVCEVFSTHAKDMDVVELLTEVNKKVACGFQTSQGSNILKQMPEMTSRLLKKFYFWPEARNSAV
Turning to B4, the binding result in data set [1] was “binds”.

For the molecule GPLFNFLGCVRPQVQQVWRKK (peptide, UniProt P42573 389-409, looked up) [CED-3 L2′ loop fragment (residues 389–409)], the “stoichiometry N” value in data set [3] is 8 L2′ loop fragments per CED-4 apoptosome. Take GP[SeMet]FNF[SeMet]GCVRPQVQQVWRKK (peptide, UniProt P42573 389-409, looked up) [CED-3 L2′ loop fragment (residues 389–409) with Leu391 and Leu395 replaced by selenomethionine]: the binding result in data set [3] was “binds”. Take GPLFNF[SeMet]GCVRPQVQQVWRKK (peptide, UniProt P42573 389-409, looked up) [CED-3 L2′ loop fragment (residues 389–409) with Leu395 replaced by selenomethionine]: the binding result in data set [3] is “binds”. Still for that read-out and setting: for GP[SeMet]FNFLGCVRPQVQQVWRKK (peptide, UniProt P42573 389-409, looked up) [CED-3 L2′ loop fragment (residues 389–409) with Leu391 replaced by selenomethionine] the value was “binds”.
